# According to FireProtDB (doi:10.1038/nsb0196-54):
# B1: Regulatory protein rop wild type, P03051 (protein)
# chain: MTKQEKTALNMARFIRSQTLTLLEKLNELDADEQADICESLHDHADELYRSCLARFGDDGENL
# Conditions: Escherichia coli; pH 7; Thermal; CD; Sodium phosphate 10 mM; NaCl 350 mM; whole UniProt chain shown
protein,measurement,value
B1,Tm,68.7 °C
